Results as given in publication PMC5021334.

Columns and labels:
[1] = target: GST-DENV2 NS5 residues 865-900 (Dengue virus serotype 2); assay: pull-down
[2] = target: GST-DENV3 NS5 residues 865-900 (Dengue virus serotype 3); assay: pull-down
[3] = target: GST-DENV1 NS5 residues 865-899 (Dengue virus serotype 1); assay: ELISA; solid-phase microtitre plate assay: GST-NLS from cell lysate captured on a glutathione coated plate and washed (PBS, 0.05% Tween-20); Impα in 2-fold serial dilutions in PBS from 12.5 μM, 1 h at RT; bound Impα detected with anti-6x His tag HRP antibody and TMB at 450 nm; one-site specific binding …
[4] = target: GST-DENV2 NS5 residues 865-900 (Dengue virus serotype 2); assay: as above
[5] = target: GST-DENV3 NS5 residues 865-900 (Dengue virus serotype 3); assay: as above
[6] = target: GST-DENV4 NS5 residues 865-901 (Dengue virus serotype 4); assay: as above

mouse importin-α lacking the auto-inhibitory importin-β binding domain (Impα) (domain or fragment)
Kd [1]: 270 nM | Kd [2]: 370 nM | Kd [3]: 54000 nM | Kd [4]: 4530 nM | Kd [5]: 660 nM | Kd [6]: 18500 nM
